Measurements published in US12319739 (F STAR DELTA, dated 2025).
Where a chain is given by its changes, count along the chain named. Blank lines part the entries; values can stand above or below the binder they belong to.

How the values were obtained:
human CEACAM-5-His-Fc = target: T1, human CEACAM-5-His-Fc (human, UniProt P06731 35-685); assay: ELISA, antigen coated 1 µg/ml
T1 sequence (looked up): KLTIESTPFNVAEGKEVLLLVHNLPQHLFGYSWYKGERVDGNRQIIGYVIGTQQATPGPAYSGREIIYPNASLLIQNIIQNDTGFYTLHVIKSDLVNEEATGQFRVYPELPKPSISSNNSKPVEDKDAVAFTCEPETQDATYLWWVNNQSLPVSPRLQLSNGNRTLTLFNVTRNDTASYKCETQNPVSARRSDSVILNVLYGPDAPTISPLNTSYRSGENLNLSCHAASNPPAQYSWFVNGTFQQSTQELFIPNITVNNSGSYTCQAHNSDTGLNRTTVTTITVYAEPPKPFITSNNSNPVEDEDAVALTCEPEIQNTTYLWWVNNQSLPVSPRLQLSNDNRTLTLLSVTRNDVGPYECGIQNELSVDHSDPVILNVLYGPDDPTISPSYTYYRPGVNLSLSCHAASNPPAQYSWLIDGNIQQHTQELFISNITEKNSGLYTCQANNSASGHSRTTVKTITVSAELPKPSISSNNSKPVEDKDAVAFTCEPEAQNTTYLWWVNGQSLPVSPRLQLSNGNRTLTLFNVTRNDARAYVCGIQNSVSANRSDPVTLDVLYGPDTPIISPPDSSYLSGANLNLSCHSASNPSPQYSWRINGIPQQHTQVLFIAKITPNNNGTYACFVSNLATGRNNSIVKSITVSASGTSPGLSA
Procedure: (§1) Binding of the anti-MSLN mAbs, tested at a concentration range of 0.02 to 1000 nM (3-fold dilutions) was detected using anti-human Fab-HRP (Sigma, A0293).

human E-Cadherin = target: T2, human E-Cadherin (human, UniProt P12830 155-707); assay: ELISA, antigen coated 1 µg/ml
T2 sequence (looked up): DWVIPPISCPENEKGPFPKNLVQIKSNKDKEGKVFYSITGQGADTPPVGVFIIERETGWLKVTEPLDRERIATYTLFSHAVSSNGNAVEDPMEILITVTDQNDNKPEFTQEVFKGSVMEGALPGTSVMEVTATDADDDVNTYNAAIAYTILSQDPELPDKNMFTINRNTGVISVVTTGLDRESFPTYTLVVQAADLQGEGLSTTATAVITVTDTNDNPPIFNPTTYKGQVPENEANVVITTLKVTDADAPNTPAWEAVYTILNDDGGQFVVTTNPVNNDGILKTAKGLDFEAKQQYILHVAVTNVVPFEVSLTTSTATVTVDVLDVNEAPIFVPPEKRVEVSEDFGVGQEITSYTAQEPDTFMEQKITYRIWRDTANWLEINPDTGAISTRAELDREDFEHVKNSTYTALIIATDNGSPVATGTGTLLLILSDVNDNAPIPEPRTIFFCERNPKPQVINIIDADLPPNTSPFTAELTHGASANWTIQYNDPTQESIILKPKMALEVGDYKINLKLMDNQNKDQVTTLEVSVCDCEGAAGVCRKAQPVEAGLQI
Procedure: as §1

human Thrombomodulin = human Thrombomodulin (human, UniProt P07204 19-515, limits assumed); assay: ELISA, antigen coated 1 µg/ml
Procedure: as §1

human EpCAM-hFc = target: T3, human EpCAM-hFc (human, UniProt P16422 24-265, limits assumed); assay: ELISA, antigen coated 1 µg/ml
T3 sequence (looked up): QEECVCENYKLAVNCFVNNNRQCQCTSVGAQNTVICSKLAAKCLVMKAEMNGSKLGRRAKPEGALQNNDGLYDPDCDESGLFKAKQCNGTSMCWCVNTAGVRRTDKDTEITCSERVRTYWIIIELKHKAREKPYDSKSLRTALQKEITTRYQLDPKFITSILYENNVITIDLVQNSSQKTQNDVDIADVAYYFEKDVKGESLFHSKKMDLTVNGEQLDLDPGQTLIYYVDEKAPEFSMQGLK
Procedure: as §1

hMSLN-His-Avi [1] = target: T4, hMSLN-His-Avi (human, UniProt Q13421 296-598, single biotin on the Avi tag in the biotinylated form); assay: ELISA, hMSLN-His-Avi coated 1 µg/ml
T4 construct: Monomeric; also called human MSLN-His-Avi; hMSLN-Avi-His

hMSLN-His-Avi [2] = target: T4, hMSLN-His-Avi; assay: SPR, hMSLN-His-Avi immobilised at 50 RU
hMSLN-His-Avi [3] = target: T4, hMSLN-His-Avi; assay: SPR, hMSLN-His-Avi immobilised at 100 RU
hMSLN-His-Avi [4] = target: T4, hMSLN-His-Avi; assay: ratio of SPR KDs
[5] = target: human CD137 on primary human CD8+ T cells (human, UniProt Q07011 24-255); assay: cell-based or functional assay
[6] = target: T5, endogenous cell surface human MSLN (human, UniProt Q13421 296-598); assay: flow cytometry, NCI-H226 cells
T5 construct: whole, on cells; The cell line is named under assay; also called cell-surface MSLN on NCI-H226, OVCAR-3 and AsPC-1 cells

[7] = target: T5, endogenous cell surface human MSLN; assay: flow cytometry, NCI-H226 cells + 20 nM soluble MSLN
hMSLN-His-Avi [8] = target: T4, hMSLN-His-Avi; assay: SPR, hMSLN-His-Avi immobilised ~100 RU, mAb2 injected
cMSLN-His-Avi = target: T6, cMSLN-His-Avi (cynomolgus, single biotin on the Avi tag in the biotinylated form); assay: SPR, mAb2 captured on Protein G, cMSLN-His-Avi in solution
T6 construct: Monomeric; also called cyno MSLN-His-Avi; cMSLN-Avi-His
T6 chain: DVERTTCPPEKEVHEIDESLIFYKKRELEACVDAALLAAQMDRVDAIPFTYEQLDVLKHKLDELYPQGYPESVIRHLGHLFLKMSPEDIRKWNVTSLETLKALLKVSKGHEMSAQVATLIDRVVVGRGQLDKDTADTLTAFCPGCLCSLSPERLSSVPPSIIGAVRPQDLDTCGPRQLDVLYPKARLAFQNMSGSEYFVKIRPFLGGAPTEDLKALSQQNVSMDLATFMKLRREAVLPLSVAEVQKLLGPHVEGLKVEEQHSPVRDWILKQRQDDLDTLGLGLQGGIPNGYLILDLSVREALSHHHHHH
Procedure: (§2) The association time was 5 min and the dissociation time was 5 min. Running buffer was HBS-EP (GE Healthcare BR100188). Flow cells were regenerated by injecting Glycine-HCl pH2.1 at a flow rate of 30 μl/min for 15 seconds. The data was analysed as described in Example 7.1.

hMSLN-His-Avi [9] = target: T4, hMSLN-His-Avi; assay: SPR, mAb2 captured on Protein G, hMSLN-His-Avi in solution
Procedure: as §2

hCD137-mFc-Avi = target: T7, hCD137-mFc-Avi (human; mouse, UniProt Q07011 24-186, one biotin on each Avi tag in the biotinylated form); assay: SPR, mAb2 captured by anti-human Fab, hCD137-mFc-Avi in solution
T7 construct: also called human dimeric CD137; human CD137-mFc-Avi
Procedure: A Biacore CM5 chip was coated with anti-human Fab using a Human Fab Capture Kit (GE Healthcare 28958325) according to manufacturer's conditions, to a surface density of approximately 9000 RU. […] The association time was 5 min and the dissociation time was 5 min. Running buffer was HBS-EP. Flow cells were regenerated by injecting two repeat injections of 10 mM glycine-HCl at pH 2.1 at a flow rate of 30 μl/min for 30 seconds. Data analysis was performed as described in earlier examples (see e.g. Example 7.1).

mMSLN-His-Avi [10] = target: T8, mMSLN-His-Avi (mouse, UniProt Q61468 298-600, single biotin on the Avi tag in the biotinylated form); assay: ratio of SPR KDs
T8 construct: also called mouse MSLN-His-Avi
T8 sequence: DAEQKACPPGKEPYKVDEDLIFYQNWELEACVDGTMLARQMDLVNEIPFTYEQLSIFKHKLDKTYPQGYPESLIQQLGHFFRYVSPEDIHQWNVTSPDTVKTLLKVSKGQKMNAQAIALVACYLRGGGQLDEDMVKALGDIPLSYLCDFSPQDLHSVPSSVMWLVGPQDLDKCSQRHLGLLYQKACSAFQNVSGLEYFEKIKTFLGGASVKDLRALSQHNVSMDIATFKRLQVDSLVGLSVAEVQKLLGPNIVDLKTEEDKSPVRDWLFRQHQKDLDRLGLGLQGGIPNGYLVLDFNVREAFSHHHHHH
Procedure: (§3) To determine the affinity for soluble MSLN the mAb^2 was captured via an anti-human Fc. Briefly, 25 µg/ml anti-human IgG (Fc) antibody (GE Healthcare, Human Antibody Capture Kit, BR100839) was immobilised on a Biacore sensor chip CM5 (GE Healthcare, BR100530) achieving a final response of approximately 750 RU. The mAb^2 molecule, diluted in HBS-EP buffer (GE Healthcare, BR100188) at 50 nM, was injected individually at 30 µl/min to achieve a response of approximately 100 RU. The recombinant mMSLN-His-Avi antigen, diluted in HBS-EP buffer, was injected at a concentration range of 243 nM to 0.11 nM with 3-fold dilutions for 5 minutes at 70 µl/min and then allowed to dissociate in buffer for 5 minutes. Regeneration was achieved by injecting 3 M magnesium chloride (GE Healthcare, Human Antibody Capture Kit, BR100839) for 30 seconds at a rate of 30 µl/min.

mMSLN-His-Avi [11] = target: T8, mMSLN-His-Avi; assay: SPR, mMSLN-His-Avi immobilised at 50 RU
mMSLN-His-Avi [12] = target: T8, mMSLN-His-Avi; assay: SPR, mAb2 captured by anti-human Fc, mMSLN-His-Avi in solution
Procedure: as §3

T5 sequence (Q13421 other isoform, or with tags, fused parts or gaps limits assumed): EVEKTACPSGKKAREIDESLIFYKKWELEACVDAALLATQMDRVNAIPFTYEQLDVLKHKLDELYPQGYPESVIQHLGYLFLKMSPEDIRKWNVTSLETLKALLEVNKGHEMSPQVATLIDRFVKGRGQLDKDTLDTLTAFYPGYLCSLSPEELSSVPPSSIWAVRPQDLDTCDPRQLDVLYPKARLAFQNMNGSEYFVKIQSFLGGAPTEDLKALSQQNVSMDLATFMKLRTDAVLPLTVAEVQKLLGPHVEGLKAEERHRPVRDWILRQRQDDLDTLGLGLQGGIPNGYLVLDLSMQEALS
T4 sequence (Q13421 other isoform, or with tags, fused parts or gaps): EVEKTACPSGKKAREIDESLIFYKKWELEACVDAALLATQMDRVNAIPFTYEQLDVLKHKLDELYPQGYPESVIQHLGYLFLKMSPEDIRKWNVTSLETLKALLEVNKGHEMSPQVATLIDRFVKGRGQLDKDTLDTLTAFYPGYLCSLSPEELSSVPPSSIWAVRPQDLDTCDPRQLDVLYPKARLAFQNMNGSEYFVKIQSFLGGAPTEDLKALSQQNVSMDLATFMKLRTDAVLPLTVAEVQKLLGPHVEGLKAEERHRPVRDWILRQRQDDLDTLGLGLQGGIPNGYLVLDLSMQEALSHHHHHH
Sequence of human CD137 on primary human CD8+ T cells (Q07011 24-255): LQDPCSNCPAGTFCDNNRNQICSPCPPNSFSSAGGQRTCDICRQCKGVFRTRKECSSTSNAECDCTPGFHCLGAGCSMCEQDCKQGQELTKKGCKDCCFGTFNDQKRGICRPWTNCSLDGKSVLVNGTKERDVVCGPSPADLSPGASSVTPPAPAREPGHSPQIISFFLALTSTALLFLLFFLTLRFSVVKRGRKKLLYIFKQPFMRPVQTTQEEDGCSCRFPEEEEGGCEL
Sequence of human Thrombomodulin (P07204 19-515 limits assumed): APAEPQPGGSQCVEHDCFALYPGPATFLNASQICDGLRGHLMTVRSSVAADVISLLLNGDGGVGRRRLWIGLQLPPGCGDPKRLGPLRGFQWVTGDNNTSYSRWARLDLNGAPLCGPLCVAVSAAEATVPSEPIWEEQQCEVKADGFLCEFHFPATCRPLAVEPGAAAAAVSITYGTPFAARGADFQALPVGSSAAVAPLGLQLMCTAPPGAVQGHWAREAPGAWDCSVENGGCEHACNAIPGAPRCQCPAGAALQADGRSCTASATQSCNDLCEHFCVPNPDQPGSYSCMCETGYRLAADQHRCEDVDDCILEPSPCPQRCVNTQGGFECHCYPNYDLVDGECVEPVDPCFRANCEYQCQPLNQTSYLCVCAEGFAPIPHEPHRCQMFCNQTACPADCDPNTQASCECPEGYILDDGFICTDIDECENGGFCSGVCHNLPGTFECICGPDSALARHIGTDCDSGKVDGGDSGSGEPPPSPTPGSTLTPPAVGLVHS
T7 sequence (Q07011 24-186): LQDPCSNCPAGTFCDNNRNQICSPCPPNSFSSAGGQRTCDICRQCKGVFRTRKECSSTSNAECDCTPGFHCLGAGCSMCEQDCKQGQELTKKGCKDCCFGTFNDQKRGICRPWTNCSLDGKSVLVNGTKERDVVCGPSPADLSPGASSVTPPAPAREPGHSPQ

binding result (human CEACAM-5-His-Fc): no binding (tested: 1000 nM)
binding result (human E-Cadherin): no binding (tested: 1000 nM)
binding result (human Thrombomodulin): no binding (tested: 1000 nM)
binding result (human EpCAM-hFc): no binding (tested: 1000 nM)
EC50 (hMSLN-His-Avi [1]): ~0.5 nM
maximum binding signal (hMSLN-His-Avi [1]): 3
Kd (hMSLN-His-Avi [2]): 37 nM
Kd (hMSLN-His-Avi [3]): 29.6 nM
B1: FS28-185 (mAb in G1-AA format) (antibody, human IgG1, V domains shown)
VH: EVQLLESGGGLVQPGGSLRLSCAASGFTFTTSAMSWVRQAPGKGLEWVSRINPYEGETNYADSVKGRFTISRDNSKNTLYLQMNSLRAEDTAVYYCARGWSIATYYKSAMDYWGQGTLVTVSS
VL: EIVLTQSPGTLSLSPGERATLSCRASQSVSSSYLAWYQQKPGQAPRLLIYGASSRATGIPDRFSGSGSGTDFTLTISRLEPEDFAVYYCQQSSYSAPVTFGQGTKVEIKR

binding result (human CEACAM-5-His-Fc): no binding (tested: 1000 nM)
binding result (human E-Cadherin): no binding (tested: 1000 nM)
binding result (human Thrombomodulin): no binding (tested: 1000 nM)
binding result (human EpCAM-hFc): no binding (tested: 1000 nM)
EC50 (hMSLN-His-Avi [1]): ~0.5 nM
maximum binding signal (hMSLN-His-Avi [1]): 3
Kd (hMSLN-His-Avi [2]): 26.2 nM
Kd (hMSLN-His-Avi [3]): 23.2 nM
B2: FS28-256 (mAb in G1-AA format) (antibody, human IgG1, V domains shown)
VH: EVQLLESGGGLVQPGGSLRLSCAASGFTFTNTYMSWVRQAPGKGLEWVSNISPTYSTTNYADSVKGRFTISRDNSKNTLYLQMNSLRAEDTAVYYCARYNSYQGGLDYWGQGTLVTVSS
VL: EIVLTQSPGTLSLSPGERATLSCRASQSVSSSYLAWYQQKPGQAPRLLIYGASSRATGIPDRFSGSGSGTDFTLTISRLEPEDFAVYYCQQSYYYPITFGQGTKVEIK

KD ratio in solution/immobilised human MSLN (hMSLN-His-Avi [4]): 85
Emax (IL-2 pg/ml), NCI-H226 co-culture, Donor A [5]: 1070 pg/mL
Emax (IL-2 pg/ml), NCI-H226 co-culture, Donor B [5]: 1690 pg/mL
IL-2 release EC50, NCI-H226 co-culture, Donor A [5]: 0.04 nM
IL-2 release EC50, NCI-H226 co-culture, Donor B [5]: 0.05 nM
EC50 [6]: 0.884 nM
Emax (MFI) [6]: 752000 MFI
EC50 [7]: 3.64 nM
Emax (MFI) [7]: 799000 MFI
Kd (hMSLN-His-Avi [8]): 0.39 nM
Kd (cMSLN-His-Avi): 239 nM
Kd (hMSLN-His-Avi [9]): 33.1 nM
Kd (hCD137-mFc-Avi): 1.51 nM
B3: FS22-172-003-AA/FS28-024-052 (bispecific antibody, human IgG1, kappa, L234A L235A, V domains shown)
VH: EVQLLESGGGLVQPGGSLRLSCAASGFTLSYSSMSWVRQAPGKGLEWVSFITPSTGYTHYADSVKGRFTISRDNSKNTLYLQMNSLRAEDTAVYYCARRALLFDYWGQGTLVTVSS
VL: EIVLTQSPGTLSLSPGERATLSCRASQSVSSSYLAWYQQKPGQAPRLLIYGASSRATGIPDRFSGSGSGTDFTLTISRLEPEDFAVYYCQQASSYPLTFGQGTKVEIKR
notes: IgG1 mAb^2 with LALA

ratio of KD in solution/immobilised (mMSLN-His-Avi [10]): 31.9
Kd (mMSLN-His-Avi [11]): 7.9 nM
Kd (mMSLN-His-Avi [12]): 252 nM
B4: FS22m-063-AA/FS28m-228 (bispecific antibody, human IgG1, kappa, L234A L235A, V domains shown)
VH: EVQLLESGGGLVQPGGSLRLSCAASGFTFSTYFMVWVRQAPGKGLEWVSMISPKSSNTYYADSVKGRFTISRDNSKNTLYLQMNSLRAEDTAVYYCARWFTPARFDYWGQGTLVTVSS
VL: B3 VL with A92P, S93F, S94P, Y95F, P96S, L97F
notes: IgG1 mAb^2 with LALA; also called anti-mouse CD137/MSLN mAb^2

ratio of KD in solution/immobilised (mMSLN-His-Avi [10]): 23.2
Kd (mMSLN-His-Avi [11]): 2.6 nM
Kd (mMSLN-His-Avi [12]): 60.2 nM
B5: FS22m-063-AA/FS28m-228-010 (bispecific antibody, human IgG1, kappa, L234A L235A, V domains shown)
VH: B4 VH with W99Y, F100H, T101I, P102S, A103P
VL: B3 VL with A92P, S93F, S94P, Y95F, P96S, L97F
notes: IgG1 mAb^2 with LALA
